Broadly, the Kd is the free concentration of one partner at which half of the binding sites on the other are occupied at equilibrium, for simple one-to-one binding.

In test [1] the target is T1, human MerTK extracellular domain (ECD), recombinant (human, UniProt Q12866 21-505).
T1 construct: also called huMerTK; not shown: polyHis tag or TEVS/Thrombin/murine IgG2a Fc tag
T1 sequence: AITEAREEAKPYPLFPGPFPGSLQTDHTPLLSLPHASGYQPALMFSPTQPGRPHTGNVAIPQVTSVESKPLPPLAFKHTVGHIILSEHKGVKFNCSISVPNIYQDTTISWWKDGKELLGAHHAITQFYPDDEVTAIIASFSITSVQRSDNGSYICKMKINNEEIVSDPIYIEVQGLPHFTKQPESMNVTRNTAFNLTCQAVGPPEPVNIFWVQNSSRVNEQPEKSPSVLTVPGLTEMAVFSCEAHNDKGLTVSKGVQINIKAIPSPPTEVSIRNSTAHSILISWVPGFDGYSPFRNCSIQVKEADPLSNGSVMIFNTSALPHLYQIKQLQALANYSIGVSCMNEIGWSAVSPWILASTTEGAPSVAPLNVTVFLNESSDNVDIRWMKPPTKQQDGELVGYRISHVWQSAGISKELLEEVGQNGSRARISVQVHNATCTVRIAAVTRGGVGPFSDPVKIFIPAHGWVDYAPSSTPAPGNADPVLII
The test can be described thus: SPR, Carterra LSA, antibody immobilised. The protocol: (§1) Binding kinetics of human anti-MerTK IgG1 LALAPS antibodies of the present disclosure to human, cyno, and murine MerTK were evaluated using a Carterra LSA instrument (Carterra, Salt Lake City, Utah). Briefly, anti-MerTK antibodies were prepared by diluting to 10 μg/ml in 10 mM Acetate, pH 4.25 (Carterra), at 300 μl/well. A HC200M sensor chip (Carterra) was activated using the single channel flow cell with a 7-minute injection of a 1:1:1 mixture of 100 mM MES pH 5.5, 100 mM sulfo-NHS, 400 mM EDC (all reconstituted in MES pH 5.5; 100 μl of each mixed in vial immediately before running assay). After switching to the multi-channel array flow cell, the antibodies were injected over the activated chip in a 96-spot array for 15 minutes. The remaining unconjugated active groups on the chip were then blocked by injecting 1M Ethanolamine pH 8.5 (Carterra) for 7 minutes using the single channel flow cell.
(§2) After priming with running buffer (HBS-TE, Carterra) with 0.5 mg/ml BSA (Sigma), the immobilized anti-MerTK antibodies were tested for their ability to bind to several forms of recombinant MerTK extracellular domain, including human, cynomolgus, and mouse orthologs as described above. Estimates of affinity were generated by injecting each analyte over the entire antibody array using the single channel flow cell. MerTK analytes were diluted to 33.3, 100, and 300 nM in running buffer, and injected in serial from lowest to highest concentration without regeneration. Two buffer blanks were run between each series (one species per series). Data were processed and analyzed using NextGenKIT high-throughput kinetics analysis software (Carterra).
(§3) The equilibrium dissociation constants (KD) were then calculated from the fitted association and dissociation rate constants (k-on and k-off) for anti-MerTK antibodies of the present disclosure. Binding kinetic analysis was also performed on anti-MerTK antibodies H1 (BioLegend, Clone ID: 590H11G1E3), H2 (R&D systems, Clone ID: 125518), M6 (WO2016/106221), and CDX AB2000-A7 hIgG1 (WO2019/084307).

Test [2] deals with T2, murine MerTK extracellular domain (ECD), recombinant (mouse, UniProt Q60805 19-497).
T2 construct: also called moMerTK; mouse MerTK; not shown: polyHis tag or TEVS/Thrombin/murine IgG2a Fc tag
T2 sequence: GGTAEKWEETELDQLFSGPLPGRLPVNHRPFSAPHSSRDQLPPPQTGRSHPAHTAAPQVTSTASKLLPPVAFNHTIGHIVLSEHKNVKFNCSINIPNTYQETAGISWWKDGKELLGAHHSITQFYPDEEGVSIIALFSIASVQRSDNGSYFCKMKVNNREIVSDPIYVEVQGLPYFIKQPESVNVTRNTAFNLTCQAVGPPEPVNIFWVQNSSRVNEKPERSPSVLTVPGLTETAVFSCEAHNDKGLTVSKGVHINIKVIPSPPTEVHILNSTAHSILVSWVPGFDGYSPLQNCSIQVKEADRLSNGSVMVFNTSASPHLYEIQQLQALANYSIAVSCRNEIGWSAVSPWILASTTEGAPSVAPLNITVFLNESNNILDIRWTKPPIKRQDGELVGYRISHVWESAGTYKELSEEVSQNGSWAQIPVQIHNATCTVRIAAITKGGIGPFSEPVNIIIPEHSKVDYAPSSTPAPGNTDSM
The test can be described thus: SPR, Carterra LSA, antibody immobilised. The protocol:
as §1, §2, §3

For test [3], the target named is T3, cyno MerTK extracellular domain (ECD), recombinant (cynomolgus monkey, UniProt Q12866 21-505 (human entry)).
T3 construct: also called cynomolgus MerTK; not shown: polyHis tag or TEVS/Thrombin/murine IgG2a Fc tag
T3 chain: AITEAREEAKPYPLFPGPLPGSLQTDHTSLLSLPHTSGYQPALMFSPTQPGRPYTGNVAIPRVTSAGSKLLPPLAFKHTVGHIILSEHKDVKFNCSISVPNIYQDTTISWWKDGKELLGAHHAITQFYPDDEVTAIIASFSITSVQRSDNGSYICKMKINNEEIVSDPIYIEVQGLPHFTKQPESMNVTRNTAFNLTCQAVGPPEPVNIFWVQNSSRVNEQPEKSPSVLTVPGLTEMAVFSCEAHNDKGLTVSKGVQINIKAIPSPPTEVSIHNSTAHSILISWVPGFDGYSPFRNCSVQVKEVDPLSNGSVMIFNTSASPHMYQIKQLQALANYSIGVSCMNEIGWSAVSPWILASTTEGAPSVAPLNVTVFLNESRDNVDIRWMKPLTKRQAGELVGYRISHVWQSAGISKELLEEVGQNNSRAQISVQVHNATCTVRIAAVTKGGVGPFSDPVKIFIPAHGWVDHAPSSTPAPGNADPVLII
The test can be described thus: SPR, Carterra LSA, antibody immobilised; LB = Low binding. As to the method:
as §1
After priming with running buffer (HBS-TE, Carterra) with 0.5 mg/ml BSA (Sigma), the immobilized anti-MerTK antibodies were tested for their ability to bind to several forms of recombinant MerTK extracellular domain, including human, cynomolgus, and mouse orthologs as described above. […] Data were processed and analyzed using NextGenKIT high-throughput kinetics analysis software (Carterra).
For orientation: SPR reads the build-up and loss of mass on a sensor chip optically.

Test [4] addresses T4, human Axl ECD construct (Full Axl) with linker+His+Avi tag (human, UniProt P30530 26-451).
T4 construct: tested as Expi293 supernatant; also called ECD domain of human Axl
T4 sequence: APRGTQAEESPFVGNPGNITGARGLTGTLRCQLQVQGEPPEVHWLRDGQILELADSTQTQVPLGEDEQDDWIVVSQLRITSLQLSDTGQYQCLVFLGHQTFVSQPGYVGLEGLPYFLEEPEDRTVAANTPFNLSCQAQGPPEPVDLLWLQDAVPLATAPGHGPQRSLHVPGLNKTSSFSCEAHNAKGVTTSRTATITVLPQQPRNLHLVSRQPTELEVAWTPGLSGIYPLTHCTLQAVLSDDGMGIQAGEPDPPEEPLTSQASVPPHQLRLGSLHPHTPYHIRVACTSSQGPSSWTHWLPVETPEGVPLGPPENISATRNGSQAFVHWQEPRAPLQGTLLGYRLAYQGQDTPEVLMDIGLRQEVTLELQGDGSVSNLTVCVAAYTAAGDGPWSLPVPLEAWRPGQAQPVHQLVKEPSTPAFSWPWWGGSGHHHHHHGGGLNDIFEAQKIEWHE
The test can be described thus: SPR, Carterra LSA, antibody immobilised, construct supernatant injected. As to the method: Binding of anti-MerTK antibodies of the present disclosure to these domain-swapped chimera or deletion mutants (prepared as described above) was tested by Surface Plasmon Resonance (SPR) using Carterra LSA. Purified anti-MerTK antibodies were immobilized in duplicate on a HC30M chip (Carterra) by amine coupling, following the manufacturer's instructions (described previously). Supernatants containing the constructs were diluted 1:1 with running buffer containing 0.5 mg/mL BSA (HBS-TE, Carterra) and injected over the immobilized antibodies. The surface was regenerated with 10 mM Glycine pH2.0 after each construct injection. Sensorgrams were analyzed using Carterra Epitope software to identify patterns of construct binding. Loss of binding to MerTK constructs with domains deleted or swapped in from Axl and/or gain of binding to Axl constructs with MerTK domains swapped in were evaluated. Data from these studies was used to construct a domain binding map for anti-MerTK antibodies and their binding to various domains of human MerTK.

B1: MTK-22 (antibody, human IgG1, V domains shown)
VH: QVQLQQPGADLVEPGASVKLSCKASGYTFTSYWMHWVKQRPGQGLEWIGEIDPSDSSSNYNQKFKGKATLTVDKSSSTAYMHLNSLTSEDSAVYYCARRYYYGSLYFDNWGQGTTLTVSS
VL: DVVMTQSHKFMSTSVGDRVSITCKASQDVGTAIAWYQQKPGQSPKLLIYWASTRHTGVPDRFTGSRSGTVFTLTISNVQSEDLADYFCQQYTSYPLTFGSGTKLEIK
Turning to B1, in test [1], the dissociation constant Kd came to 54 nM. Moreover, the binding result in test [2] is given as “no binding (tested: 300 nM)”; in test [3], “binds”; in test [4], “no binding”.

Source of the values: patent publication US20210261685A1 (Alector, published 2021).
